This is an account of results in publication PMC2795102 (Journal of biomolecular screening, 2009).

For test [1], the target named is Wildtype, full-length human Gαi1 (human, UniProt P63096 1-354). Description: SPR. For orientation: Surface plasmon resonance follows binding to a sensor surface in real time, without labels.
The target of a further test is Gαi1(R178M/A326S) (human, UniProt P63096 1-354, R178M | A326S). Nature of the test: SPR.
Gαi1(R178M/A326S), sequence (P63096 whole entry R178M/A326S): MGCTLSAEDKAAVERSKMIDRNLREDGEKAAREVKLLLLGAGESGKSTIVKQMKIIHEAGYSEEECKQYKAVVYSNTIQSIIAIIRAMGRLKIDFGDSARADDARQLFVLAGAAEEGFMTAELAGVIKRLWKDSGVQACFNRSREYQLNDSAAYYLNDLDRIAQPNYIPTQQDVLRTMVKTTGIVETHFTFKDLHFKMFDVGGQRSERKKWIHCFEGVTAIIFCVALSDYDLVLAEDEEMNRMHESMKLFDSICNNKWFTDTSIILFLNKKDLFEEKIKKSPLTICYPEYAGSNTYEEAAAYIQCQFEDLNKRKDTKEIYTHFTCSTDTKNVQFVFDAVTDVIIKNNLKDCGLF

Wildtype, full-length human Gαi1, sequence (P63096 whole entry): as the sequence (P63096 whole entry R178M/A326S) above, with M178R, S326A counted along it

B1: RGS16 (natural protein, human, UniProt O15492 1-202, looked up)
chain: MCRTLAAFPTTCLERAKEFKTRLGIFLHKSELGCDTGSTGKFEWGSKHSKENRNFSEDVLGWRESFDLLLSSKNGVAAFHAFLKTEFSEENLEFWLACEEFKKIRSATKLASRAHQIFEEFICSEAPKEVNIDHETHELTRMNLQTATATCFDAAQGKTRTLMEKDSYPRFLKSPAYRDLAAQASAASATLSSCSLDEPSHT
In general, Kd refers to the concentration at which binding is half-saturated. A low value points to higher affinity. As to B1, the Kd in test [1] amounted to 124 nM; with Gαi1(R178M/A326S) it was 115 nM.
